As a reminder, the Km is the substrate concentration at which the rate is half of its maximum.

Data set [1] deals with N[C@@H](CCC(=O)O)C(=O)O. In words: purified protein, by the assay type. To be noted: other: forward assay.
The subject of data set [2] is N[C@@H](CCC[C@H](N)C(=O)O)C(=O)O. Nature of the data set: purified protein, by the assay type. Particulars: other: reverse assay.
Data set [3] concerns O=C(O)C1=N[C@H](C(=O)O)CCC1. In words: purified protein, by the assay type. To be noted: other: forward assay.
A further data set concerns O=C(O)CCC(=O)C(=O)O. In words: purified protein, by the assay type. To be noted: other: reverse assay.
Data set [4] deals with N[C@@H](CCC(=O)O)C(=O)O. Nature of the data set: Quantitative forward and reverse assays of purified LL-DAP transaminases (Example III). Particulars: other: forward assay. In kind it is biochemical, Desulfitobacterium hafniense DCB-2.
Description: (§1) This plasmid was transformed into E. coli BL21-CodonPlus®-RIPL for expression and purification of the recombinant protein.
(§2) For protein expression the E. coli strains were grown on LB at 37° C. to an OD600 nm of 0.5 and protein expression was then induced with 1 mM IPTG for 4 hr at 25° C. Cells were lysed by sonication in a solution of 50 mM sodium phosphate and 300 mM NaCl (pH 8.0). Metabolites in the extract were removed by buffer exchange using an Amicon Ultra 30,000 MWCO ultrafilter and sodium phosphate/NaCl buffer, and the concentrated soluble protein sample was used for measurement of enzyme activity as an initial assessment of enzyme function. When the recombinant protein was to be purified a larger cell culture was grown and lysed as described above, but the buffer exchange step was not carried out. […] The pure protein was then concentrated in an Amicon Ultra 30,000 MWCO ultrafilter, replacing the elution buffer with 100 mM HepesKOH, pH 7.6.
Data set [5] deals with O=C(O)C1=N[C@H](C(=O)O)CCC1. The description is as above. Type of data set: biochemical, Desulfitobacterium hafniense DCB-2. To be noted: other: forward assay.
Description: as §1, §2

As to “Synechocystis sp. PCC 6803 LL-DAP transaminase sll0480 (Synechocystis sp. PCC 6803 substr. Kazusa)”, the Km amounted to 1.5 mM in the data set on N[C@@H](CCC(=O)O)C(=O)O [1], 0.017 mM in data set [2], 0.013 mM in data set [3] and 0.31 mM in the data set on O=C(O)CCC(=O)C(=O)O.

Consider “Desulfitobacterium hafniense LL-DAP transaminase Dhaf_3890 (Desulfitobacterium hafniense DCB-2)”, for which the Michaelis constant (Km) in data set [2] amounted to 0.041 mM; with O=C(O)CCC(=O)C(=O)O it was 0.3 mM; with N[C@@H](CCC(=O)O)C(=O)O [4], 0.8 mM; in data set [5], 0.07 mM.

For “Methanothermobacter thermautotrophicus LL-DAP transaminase MTH52 (Methanothermobacter thermautotrophicus str. Delta H)”, the Km in the data set with N[C@@H](CCC(=O)O)C(=O)O [1] worked out at 3.0 mM; in data set [2], 0.03 mM; in data set [3], 0.075 mM.

“Chlamydia trachomatis LL-DAP aminotransferase CT390 (ct390), His-Tag fusion, SEQ ID NO: 9 (Chlamydia trachomatis D/UW-3/CX)”: the Michaelis constant (Km) with N[C@@H](CCC(=O)O)C(=O)O [1] (pH 7.5, 30° C., apparent Km) was 1.0 mM; in data set [2] (pH 7.5, 30° C., apparent Km) it was 0.02 mM; in data set [3] (pH 7.5, 30° C., apparent Km) it was 0.2 mM; with O=C(O)CCC(=O)C(=O)O (pH 7.5, 30° C., apparent Km, pH 7.5, 30.0 °C), 0.65 mM.

Source of the values: patent publication US20090158455A1, “COMPOSITIONS AND METHODS FOR MODULATING LYSINE PRODUCTION” (priority 2005, published 2009).
